Results from patent publication US20040259165A1 (published 2004).

Target: T1, DsRed fused to the Gal4 DNA binding domain (pGBT9) (Discosoma species)
T1 construct: range 1-147; also called DsRed-prey
Experiment: yeast two hybrid in HF7C (HIS3 and LacZ reporters)
Experimental: Yeast two hybrid assays were also performed. […] Alternatively, the yeast were grown on filters placed on plates lacking tryptophan and leucine to select for the bait and prey plasmids. After overnight growth, the filters were removed from the plates, frozen in liquid nitrogen, thawed, and incubated in X-gal overnight at 30° C. and two days at 4° C. to test for β-galactosidase activity (assayed by blue color development).

B1: DsRed fused to the Gal4 activation domain (pGAD GH) (other)
chain: ANFNQSGNIADSSLSFTFTNSSNGPNLITTQTNSQALSQPIASSNVHDNFMNNEITASKIDDGNNSKPLSPGWTDQTAYNAFGITTGMFNTTTMDDVYNYLFDDEDTPPNPKKEMRSSKNVIKEFMRFKVRMEGTVNGHEFEIEGEGEGRPYEGHNTVKLKVTKGGPLPFAWDILSPQFQYGSKVYVKHPADIPDYKKLSFPEGFKWERVMNFEDGGVVTVTQDSSLQDGCFIYKVKFIGVNFPSDGPVMQKKTMGWEASTERLYPRDGVLKGEIHKALKLKDGGHYLVEFKSIYMAKKPVQLPGYYYVDSKLDITSHNEDYTIVEQYERTEGRHHLFL
notes: range 768-881; also called DsRed-bait
- binding result: binds
